{
  "source": "paper PMC5440498",
  "target": "His-MBP-eYFP-PRDM9Cst-ZnF (Mus musculus castaneus (CAST/EiJ, Prdm9 Cst allele)) (UniProt Q96EQ9)",
  "sequence (Q96EQ9 whole entry)": "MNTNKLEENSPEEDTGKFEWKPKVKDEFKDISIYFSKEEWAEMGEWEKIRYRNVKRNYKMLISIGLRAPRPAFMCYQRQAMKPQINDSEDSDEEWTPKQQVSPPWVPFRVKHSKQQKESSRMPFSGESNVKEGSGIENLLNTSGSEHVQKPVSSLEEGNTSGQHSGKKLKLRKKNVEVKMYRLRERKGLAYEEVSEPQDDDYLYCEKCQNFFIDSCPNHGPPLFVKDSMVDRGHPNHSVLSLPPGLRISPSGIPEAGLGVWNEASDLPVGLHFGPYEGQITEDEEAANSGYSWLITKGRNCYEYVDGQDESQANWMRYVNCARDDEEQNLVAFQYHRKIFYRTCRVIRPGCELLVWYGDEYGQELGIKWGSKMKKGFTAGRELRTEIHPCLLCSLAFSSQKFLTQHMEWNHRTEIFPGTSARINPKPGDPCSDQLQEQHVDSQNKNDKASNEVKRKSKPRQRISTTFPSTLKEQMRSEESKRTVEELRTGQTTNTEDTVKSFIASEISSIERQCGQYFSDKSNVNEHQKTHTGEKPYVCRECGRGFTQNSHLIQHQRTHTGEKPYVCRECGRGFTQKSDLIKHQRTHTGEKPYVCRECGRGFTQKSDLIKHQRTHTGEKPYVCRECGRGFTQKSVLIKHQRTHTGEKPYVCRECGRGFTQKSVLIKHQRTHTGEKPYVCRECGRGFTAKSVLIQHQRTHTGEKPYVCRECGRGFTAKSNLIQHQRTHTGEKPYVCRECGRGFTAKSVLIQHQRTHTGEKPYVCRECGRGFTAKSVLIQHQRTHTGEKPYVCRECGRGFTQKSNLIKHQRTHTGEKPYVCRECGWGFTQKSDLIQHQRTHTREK",
  "experiment": "EMSA",
  "conditions": "2.5 uM protein, 15 nM DNA, 50 ng/ul polydIdC, EMSA (chimeras): 10 mM Tris-HCl pH 7.5, 50 mM KCl, 1 mM DTT, 0.05% NP-40, 50 uM ZnCl2, titration EMSA: low polydIdC plus 0.03% sarcosyl …",
  "data": [
    {"sequence": "GTGGGAGGAGATGGTGGGTGAATAGTGTGCAGACTTGGACCCTGCCCTTTCTTTACGCATTCCACTAACCATGGG (double strand) [Hlx1 B6 75 bp (hot)]", "values": [
      {"measurement": "binding signal", "value": 100, "unit": "% bound"}
    ]}
  ]
}
